Assay [1] concerns the target T1, Recombinant Human MSP R/Ron (human, UniProt Q04912 25-571, limits assumed).
T1 construct: Bought reagent
Nature of the assay: SPR (Biacore). As to the method:
(§1) The BIACORE assay (Biacore, Inc, Piscataway, N.J.) determines the affinity of antibodies or DVD-Ig with kinetic measurements of on-rate and off-rate constants. Binding of antibodies or DVD-Ig to a target antigen (for example, a purified recombinant target antigen) was determined by surface plasmon resonance-based measurements with a Biacore® 1000 or 3000 instrument (Biacore® AB, Uppsala, Sweden) using running HBS-EP (10 mM HEPES [pH 7.4], 150 mM NaCl, 3 mM EDTA, and 0.005% surfactant P20) at 25° C. All chemicals were obtained from Biacore® AB (Uppsala, Sweden) or otherwise from a different source as described in the text. For example, approximately 5000 RU of goat anti-mouse IgG, (Fcγ), fragment specific polyclonal antibody (Pierce Biotechnology Inc, Rockford, Ill.) diluted in 10 mM sodium acetate (pH 4.5) was directly immobilized across a CM5 research grade biosensor chip using a standard amine coupling kit according to manufacturer's instructions and procedures at 25 μg/ml. Unreacted moieties on the biosensor surface were blocked with ethanolamine. Modified carboxymethyl dextran surface in flowcell 2 and 4 was used as a reaction surface. Unmodified carboxymethyl dextran without goat anti-mouse IgG in flow cell 1 and 3 was used as the reference surface. For kinetic analysis, rate equations derived from the 1:1 Langmuir binding model were fitted simultaneously to association and dissociation phases of all eight injections (using global fit analysis) with the use of Biaevaluation 4.0.1 software. Purified antibodies or DVD-Ig were diluted in HEPES-buffered saline for capture across goat anti-mouse IgG specific reaction surfaces. Antibodies or DVD-Ig to be captured as a ligand (25 μg/ml) were injected over reaction matrices at a flow rate of 5 μl/min. The association and dissociation rate constants, kₒₙ (M⁻¹s⁻¹) and koff (s⁻¹) were determined under a continuous flow rate of 25 μl/min. Rate constants were derived by making kinetic binding measurements at different antigen concentrations ranging from 10-200 nM. The equilibrium dissociation constant (M) of the reaction between antibodies or DVD-Igs and the target antigen was then calculated from the kinetic rate constants by the following formula: KD=koff/kₒₙ. Binding was recorded as a function of time and kinetic rate constants were calculated.
A general note: Surface plasmon resonance follows binding to a sensor surface in real time, without labels.

Assay [2] has as its target T2, Recombinant Human ErbB3/HER3 Fc Chimera (human, UniProt P21860 20-643).
T2 construct: Bought reagent; not shown: IgG Fc part of the bought chimera
Put plainly: SPR (Biacore). As to the method:
as §1

Assay [3] has as its target T3, Recombinant Human EGF R/ErbB1 (human, UniProt P00533 25-645).
T3 construct: Bought reagent
Nature of the assay: SPR (Biacore). As to the method:
as §1

The target in the next assay is Recombinant Human β-NGF (human, UniProt P01138 122-241). Put plainly: cell-based or functional assay.
Assay [4] deals with T4, Recombinant Human VEGF 165 (human, UniProt P15692-4 27-191).
T4 construct: Bought reagent
T4 sequence (P15692 other isoform, or with tags, fused parts or gaps limits assumed): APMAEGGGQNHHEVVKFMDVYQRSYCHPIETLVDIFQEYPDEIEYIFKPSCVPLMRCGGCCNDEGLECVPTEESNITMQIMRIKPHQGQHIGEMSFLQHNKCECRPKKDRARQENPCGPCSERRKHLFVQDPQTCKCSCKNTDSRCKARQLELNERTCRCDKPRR
Nature of the assay: SPR (Biacore). The method, then:
as §1

The next assay has as its target T5, Recombinant Human DLL4 (human, UniProt Q9NR61 27-524).
T5 construct: Bought reagent of the Biacore analyses
Put plainly: SPR (Biacore). As to the method: as §1

A further assay addresses T6, Recombinant Human PlGF (human, UniProt P49763-2 21-149, limits assumed).
T6 construct: Bought reagent; also called P1GF
T6 sequence (looked up): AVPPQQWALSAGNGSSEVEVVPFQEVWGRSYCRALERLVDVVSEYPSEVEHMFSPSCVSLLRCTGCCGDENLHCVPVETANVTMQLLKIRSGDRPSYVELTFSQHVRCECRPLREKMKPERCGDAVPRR
Nature of the assay: SPR (Biacore). As to the method:
as §1

T5 sequence (Q9NR61 27-524 limits assumed): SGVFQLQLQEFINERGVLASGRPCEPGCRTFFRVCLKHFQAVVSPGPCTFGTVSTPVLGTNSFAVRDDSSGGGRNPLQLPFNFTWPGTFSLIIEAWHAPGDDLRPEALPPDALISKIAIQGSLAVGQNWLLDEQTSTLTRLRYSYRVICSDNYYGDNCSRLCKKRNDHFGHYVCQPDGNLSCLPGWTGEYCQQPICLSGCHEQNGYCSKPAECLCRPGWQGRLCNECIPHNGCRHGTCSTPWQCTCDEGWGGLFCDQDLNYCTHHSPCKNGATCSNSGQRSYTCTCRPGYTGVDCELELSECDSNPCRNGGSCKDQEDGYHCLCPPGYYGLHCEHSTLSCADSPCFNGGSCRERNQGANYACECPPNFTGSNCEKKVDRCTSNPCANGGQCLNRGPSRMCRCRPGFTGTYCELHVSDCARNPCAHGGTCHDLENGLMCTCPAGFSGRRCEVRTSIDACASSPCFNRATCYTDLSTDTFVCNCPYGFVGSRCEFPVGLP

B1: AB005 (antibody, V domains shown)
VH: EVQLVQSGGGLVKPGGSLRLSCAASGFTFSSYAMHWVRQAPGKGLEWVAVISYDGSNKYYADSVKGRFTISRDNSKNTLYLQMNSLRAEDTAVYYCARFSGWPNNYYYYGMDVWGQGTTVTVSS
VL: DVVMTQSPLSLPVTPGEPASISCRSSQSLLHSNGFNYVDWYLQKPGQSPHLLIYFGSYRASGVPDRFSGSGSGTDFTLKISRVEAEDVGVYYCMQALQTPPWTFGQGTKVEIRR
notes: Parent antibody; also called RON
On to B1, for which, in assay [1], the Kd amounted to 20.2 nM, the dissociation rate constant (koff) stood at 0.000739 s⁻¹ and the kon was 36600 M⁻¹ s⁻¹.

B2: DVD1320 (bispecific antibody, human IgG1, kappa)
heavy: not shown
light: DIQMTQSPSSLSASVGDRVTITCQASQDITNYLNWYQQKPGKAPKLLIYDASNLETGVPSRFSGSGSGTDFTFTISSLQPEDIATYNCQQCENFPITFGQGTRLEIKRTVAAPDIQMTQSPSSLSASVGDRVTITCRASEDIYNALAWYQQKPGKAPKLLIYNTDTLHTGVPSRFSGSGSGTDYTLTISSLQPEDFATYFCQHYFHYPRTFGQGTKVEIKRTVAAPSVFIFPPSDEQLKSGTASVVCLLNNFYPREAKVQWKVDNALQSGNSQESVTEQDSKDSTYSLSSTLTLSKADYEKHKVYACEVTHQGLSSPVTKSFNRGEC
notes: DVD-Ig; also called DVD1320H; DVD1320L
For the molecule B2, in assay [2], the Kd is less than 0.0042 nM, the koff is less than 1e-06 s⁻¹ and the kon was 240000 M⁻¹ s⁻¹.

B3: AB063 (antibody, V domains shown)
VH: EVQLVESGGGLVQPGGSLRLSCAASGFTFSIYSMNWVRQAPGKGLEWVSYISSSSSTIYYADSVKGRFTISRDNAKNSLYLQMNSLRDEDTAVYYCARDRGDFDAFDIWGQGTMVTVSS
VL: DIQMTQSPSSLSASVGDRVTITCQASQDITNYLNWYQQKPGKAPKLLIYDASNLETGVPSRFSGSGSGTDFTFTISSLQPEDIATYNCQQCENFPITFGQGTRLEIKR
notes: Parent antibody; also called AB063VH
Take B3: in assay [2], the Kd amounted to 1.36 nM, the dissociation rate constant (koff) is 0.000117 s⁻¹ and the kon was 86600 M⁻¹ s⁻¹.

B4: DVD1370 (bispecific antibody, human IgG1, kappa)
heavy: not shown
light: DIQMTQSPSSMSVSVGDRVTITCHSSQDINSNIGWLQQKPGKSFKGLIYHGTNLDDGVPSRFSGSGSGTDYTLTISSLQPEDFATYYCVQYAQFPWTFGGGTKLEIKRTVAAPDIQMTQSPSSLSASVGDRVTITCRASEDIYNALAWYQQKPGKAPKLLIYNTDTLHTGVPSRFSGSGSGTDYTLTISSLQPEDFATYFCQHYFHYPRTFGQGTKVEIKRTVAAPSVFIFPPSDEQLKSGTASVVCLLNNFYPREAKVQWKVDNALQSGNSQESVTEQDSKDSTYSLSSTLTLSKADYEKHKVYACEVTHQGLSSPVTKSFNRGEC
notes: DVD-Ig; also called DVD1370H; DVD1370L
On to B4, for which, in assay [3], the Kd is less than 0.0091 nM, the off-rate (koff) is less than 1e-06 s⁻¹ and the kon amounted to 110000 M⁻¹ s⁻¹. Moreover, the “C-Terminal VD NGF Inhibition Assay EC50” value in the assay with Recombinant Human β-NGF was found to be 5.96 nM.

B5: DVD1328 (bispecific antibody, human IgG1, kappa)
heavy: not shown
light: DIQMTQSPSSLSASVGDRVTITCSASQDISNYLNWYQQKPGKAPKVLIYFTSSLHSGVPSRFSGSGSGTDFTLTISSLQPEDFATYYCQQYSTVPWTFGQGTKVEIKRTVAAPDIQMTQSPSSLSASVGDRVTITCRASEDIYNALAWYQQKPGKAPKLLIYNTDTLHTGVPSRFSGSGSGTDYTLTISSLQPEDFATYFCQHYFHYPRTFGQGTKVEIKRTVAAPSVFIFPPSDEQLKSGTASVVCLLNNFYPREAKVQWKVDNALQSGNSQESVTEQDSKDSTYSLSSTLTLSKADYEKHKVYACEVTHQGLSSPVTKSFNRGEC
notes: DVD-Ig; also called DVD1328H; DVD1328L
As to B5, in assay [4], the Kd was found to be 0.08 nM, the koff was determined as 7.7e-05 s⁻¹ and the kon turned out to be 960000 M⁻¹ s⁻¹.

B6: DVD1330 (bispecific antibody, human IgG1, kappa)
heavy: not shown
light: DIQMTQSPSSLSASVGDRVTITCRASQDVSTAVAWYQQKPGKAPKLLIYSASFLYSGVPSRFSGSGSGTDFTLTISSLQPEDFATTYYCQQSYTGTVTFGQGTKVEIKRTVAAPDIQMTQSPSSLSASVGDRVTITCRASEDIYNALAWYQQKPGKAPKLLIYNTDTLHTGVPSRFSGSGSGTDYTLTISSLQPEDFATYFCQHYFHYPRTFGQGTKVEIKRTVAAPSVFIFPPSDEQLKSGTASVVCLLNNFYPREAKVQWKVDNALQSGNSQESVTEQDSKDSTYSLSSTLTLSKADYEKHKVYACEVTHQGLSSPVTKSFNRGEC
notes: DVD-Ig; also called DVD1330H; DVD1330L
Consider B6, for which, in the assay with Recombinant Human DLL4, the dissociation constant (Kd) was 0.38 nM, the koff stood at 0.0002 s⁻¹ and the on-rate (kon) came to 520000 M⁻¹ s⁻¹.

B7: AB047 (antibody, V domains shown)
VH: QVQLQQSGAELVKPGASVKISCKASGYTFTDYYINWVKLAPGQGLEWIGWIYPGSGNTKYNEKFKGKATLTIDTSSSTAYMQLSSLTSEDTAVYFCVRDSPFFDYWGQGTLLTVSS
VL: DIVLTQSPDSLAVSLGERVTMNCKSSQSLLNSGMRKSFLAWYQQKPGQSPKLLIYWASTRESGVPDRFTGSGSGTDFTLTISSVQAEDVAVYYCKQSYHLFTFGSGTKLEIKR
notes: Parent antibody; also called PlGF; AB047VH
As for B7, in the assay with Recombinant Human PlGF, the dissociation constant Kd turned out to be 0.0282 nM, the koff was found to be 0.000108 s⁻¹ and the kon came out at 3.8e+06 M⁻¹ s⁻¹.

B8: DVD1332 (bispecific antibody, human IgG1, kappa)
heavy: not shown
light: DIVLTQSPDSLAVSLGERVTMNCKSSQSLLNSGMRKSFLAWYQQKPGQSPKLLIYWASTRESGVPDRFTGSGSGTDFTLTISSVQAEDVAVYYCKQSYHLFTFGSGTKLEIKRTVAAPDIQMTQSPSSLSASVGDRVTITCRASEDIYNALAWYQQKPGKAPKLLIYNTDTLHTGVPSRFSGSGSGTDYTLTISSLQPEDFATYFCQHYFHYPRTFGQGTKVEIKRTVAAPSVFIFPPSDEQLKSGTASVVCLLNNFYPREAKVQWKVDNALQSGNSQESVTEQDSKDSTYSLSSTLTLSKADYEKHKVYACEVTHQGLSSPVTKSFNRGEC
notes: DVD-Ig; also called DVD1332H; DVD1332L
Consider B8, for which, in the assay with Recombinant Human PlGF, the Kd was 0.055 nM, the dissociation rate constant (koff) amounted to 0.00017 s⁻¹ and the kon worked out at 3e+06 M⁻¹ s⁻¹.

B9: DVD1369 (bispecific antibody, human IgG1, kappa)
heavy: not shown
light: DIQMTQSPSSLSASVGDRVTITCRASEDIYNALAWYQQKPGKAPKLLIYNTDTLHTGVPSRFSGSGSGTDYTLTISSLQPEDFATYFCQHYFHYPRTFGQGTKVEIKRTVAAPDIQMTQSPSSMSVSVGDRVTITCHSSQDINSNIGWLQQKPGKSFKGLIYHGTNLDDGVPSRFSGSGSGTDYTLTISSLQPEDFATYYCVQYAQFPWTFGGGTKLEIKRTVAAPSVFIFPPSDEQLKSGTASVVCLLNNFYPREAKVQWKVDNALQSGNSQESVTEQDSKDSTYSLSSTLTLSKADYEKHKVYACEVTHQGLSSPVTKSFNRGEC
notes: DVD-Ig; also called DVD1369H; DVD1369L
Take B9: in assay [3], the dissociation constant (Kd) is less than 0.0024 nM, the dissociation rate constant (koff) is less than 1e-06 s⁻¹ and the on-rate constant (kon) is 410000 M⁻¹ s⁻¹. Besides, the “N-Terminal VD NGF Inhibition Assay EC50” value with Recombinant Human β-NGF turned out to be 0.0056 nM.

B10: DVD1334 (bispecific antibody, human IgG1, kappa)
heavy: not shown
light: QAVLTQPSSLSAPPGASASLTCTLRSGFNVDSYRISWYQQKPGSPPQYLLRYKSDSDKQQGSGVPSRFSGSKDASANAGILLISGLQSEDEADYYCMIWHSSAWVFGGGTKLTVLRTVAAPDIQMTQSPSSLSASVGDRVTITCRASEDIYNALAWYQQKPGKAPKLLIYNTDTLHTGVPSRFSGSGSGTDYTLTISSLQPEDFATYFCQHYFHYPRTFGQGTKVEIKRTVAAPSVFIFPPSDEQLKSGTASVVCLLNNFYPREAKVQWKVDNALQSGNSQESVTEQDSKDSTYSLSSTLTLSKADYEKHKVYACEVTHQGLSSPVTKSFNRGEC
notes: DVD-Ig; also called DVD1334H; DVD1334L
As to B10, in assay [1], the Kd amounted to 5.7 nM, the off-rate constant (koff) worked out at 0.0067 s⁻¹ and the on-rate (kon) stood at 1.2e+06 M⁻¹ s⁻¹.

In general, Kd refers to the concentration at which binding is half-saturated. The koff is the first-order rate constant of dissociation. The kon is the second-order rate constant of association.

(Values after patent US20120014957A1 (AbbVie / Abbott, published 2012).)
